Values quoted from earlier work in article PMC3702509, “Label Free Fragment Screening Using Surface Plasmon Resonance as a Tool for Fragment Finding – Analyzing Parkin, a Difficult CNS Target” (PLoS ONE, 2013).

Target: UblD (Parkin ubiquitin-like domain) Ubl domain (Homo sapiens) (UniProt O60260)
Sequence (O60260 1-76): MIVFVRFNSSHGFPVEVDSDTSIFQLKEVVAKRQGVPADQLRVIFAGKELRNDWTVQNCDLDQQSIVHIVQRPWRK

Sequence of Parkin (ΔUblD) ΔUblD (O60260 77-465, stated change not applied): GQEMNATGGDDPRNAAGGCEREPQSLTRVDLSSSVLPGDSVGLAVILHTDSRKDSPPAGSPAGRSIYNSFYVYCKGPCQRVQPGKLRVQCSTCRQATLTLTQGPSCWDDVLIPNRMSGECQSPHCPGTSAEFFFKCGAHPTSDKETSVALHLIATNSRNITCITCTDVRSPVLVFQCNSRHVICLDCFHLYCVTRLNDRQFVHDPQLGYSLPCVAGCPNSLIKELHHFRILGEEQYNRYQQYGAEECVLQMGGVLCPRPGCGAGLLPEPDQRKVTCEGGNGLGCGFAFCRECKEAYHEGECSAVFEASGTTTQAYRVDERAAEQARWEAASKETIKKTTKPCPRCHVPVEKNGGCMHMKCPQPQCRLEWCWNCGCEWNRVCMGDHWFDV

- Kd: 2600 nM
Substance: Parkin (ΔUblD) ΔUblD (from UniProt O60260)
